According to paper PMC8914392, “Biochemical and structural characterizations of thioredoxin reductase selenoproteins of the parasitic filarial nematodes Brugia malayi and Onchocerca volvulus” (Redox Biology, 2022):
Where two headings read alike, the source gives them in different places.

How the values were obtained:
hTrxR1 = target: T1, hTrxR1 (Homo sapiens, UniProt Q16881); test: TNB formation at A412; format: biochemical; settings: NADPH, pH 7.5
T1 construct: gene TXNRD1; recombinant selenoprotein, GCUG C-terminus, cytosolic form; homodimer
T1 sequence (Q16881 151-649): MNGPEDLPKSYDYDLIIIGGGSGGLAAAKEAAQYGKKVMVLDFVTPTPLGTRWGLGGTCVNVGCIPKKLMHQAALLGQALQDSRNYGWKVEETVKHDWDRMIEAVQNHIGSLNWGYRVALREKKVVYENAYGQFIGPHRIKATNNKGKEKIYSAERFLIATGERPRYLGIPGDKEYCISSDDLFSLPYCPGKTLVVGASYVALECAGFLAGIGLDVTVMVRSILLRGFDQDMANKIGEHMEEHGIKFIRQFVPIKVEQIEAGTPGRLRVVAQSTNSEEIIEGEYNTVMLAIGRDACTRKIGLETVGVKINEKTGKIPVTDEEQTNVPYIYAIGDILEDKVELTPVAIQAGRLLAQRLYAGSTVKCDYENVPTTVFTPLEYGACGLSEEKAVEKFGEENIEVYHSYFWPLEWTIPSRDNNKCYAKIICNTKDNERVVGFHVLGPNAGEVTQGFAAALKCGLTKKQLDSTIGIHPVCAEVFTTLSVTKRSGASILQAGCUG
Text: TNB formation at A412 on hTrxR1

OvTrxR (isoform D) [1] = test system: T2, OvTrxR (isoform D); test: TNB formation at A412; format: biochemical, Onchocerca volvulus; settings: 250 μM NADPH, 10 nM enzyme, pH 7.5
T2 construct: gene TrxR; pABC2a, N-terminal His-SUMO tag removed; E. coli C321.deltaA; Sec enriched; homodimer
Text: TNB formation at A412 on OvTrxR (isoform D)

OvTrxR (isoform D) [2] = test system: T2, OvTrxR (isoform D); test: DTNB reduction, A412, dose-response fit; format: biochemical, Onchocerca volvulus; settings: 25 nM enzyme, 30 min preincubation with 0.25 mM NADPH and 0.1 mg/ml BSA, 1 mM DTNB, pH 7.5; for IC50: read-out: Apparent IC50 (μM) ^a
Text: DTNB reduction, A412, dose-response fit on OvTrxR (isoform D)

BmTrxR (isoform D) [3] = target: T3, BmTrxR (isoform D) (Brugia malayi, UniProt A0A1I9G0T9); test: DTNB reduction, A412, dose-response fit; format: biochemical; settings: for IC50: read-out: Apparent IC50 (μM) ^a
T3 construct: gene bma-trxr-1; full-length isoform D, 598 residues, Grx-like domain 1-102 and TrxR domain 103-598, Sec at 597; pABC2a, N-terminal His-SUMO tag removed; E. coli C321.deltaA; homodimer
T3 sequence (A0A1I9G0T9 116-713): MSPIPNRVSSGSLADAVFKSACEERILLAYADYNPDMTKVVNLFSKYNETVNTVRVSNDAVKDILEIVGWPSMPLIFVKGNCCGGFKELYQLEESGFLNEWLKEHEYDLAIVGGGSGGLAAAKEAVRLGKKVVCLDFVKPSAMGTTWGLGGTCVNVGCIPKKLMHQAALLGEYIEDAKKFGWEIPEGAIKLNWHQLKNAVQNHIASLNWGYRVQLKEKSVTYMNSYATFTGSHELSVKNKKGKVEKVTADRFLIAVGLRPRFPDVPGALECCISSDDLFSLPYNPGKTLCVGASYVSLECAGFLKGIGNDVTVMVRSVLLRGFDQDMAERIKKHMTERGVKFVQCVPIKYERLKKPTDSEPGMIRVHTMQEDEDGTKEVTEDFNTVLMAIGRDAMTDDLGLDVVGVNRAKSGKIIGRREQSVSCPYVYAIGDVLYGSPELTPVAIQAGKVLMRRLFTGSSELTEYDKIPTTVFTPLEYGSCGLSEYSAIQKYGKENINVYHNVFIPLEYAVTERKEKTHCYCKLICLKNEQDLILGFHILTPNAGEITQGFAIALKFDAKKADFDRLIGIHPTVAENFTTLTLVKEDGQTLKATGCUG
Text: DTNB reduction, A412, dose-response fit on BmTrxR (isoform D)

[4] = target: thioredoxin reductase from Onchocerca volvulus, isoform D (Onchocerca volvulus)
[5] = target: thioredoxin reductase from Brugia malayi, isoform D (Brugia malayi)
BmTrxR (isoform D) [6] = target: T3, BmTrxR (isoform D); test: ThermoFAD; format: binding; settings: 1 mM NADPH; Tm without NADPH 64.5 °C
purified protein = substrate: O=C(O)c1cc(SSc2ccc([N+](=O)[O-])c(C(=O)O)c2)ccc1[N+](=O)[O-]; test: purified protein; settings: 250 μM NADPH, 20 nM enzyme, pH 7.5

Q: Which results are given for `O=C(O)c1cc(SSc2ccc([N+](=O)[O-])c(C(=O)O)c2)ccc1[N+](=O)[O-]` [DTNB, 5,5′-dithiobis-(2-nitrobenzoic acid)]?
A: Km (hTrxR1): 61 ± 8.4 µM; Km (OvTrxR (isoform D) [1]): 170 ± 12 µM

Q: What does the source list for `COc1ccc([N+](=O)[O-])c(S(=O)(=O)c2ccc(Cl)cc2)n1` [TRi-1]?
A: IC50 (OvTrxR (isoform D) [2]): 0.012 µM; IC50 (BmTrxR (isoform D) [3]): 0.013 µM

Q: Which Km of the reductase for the Trx, Trx-linked insulin disulfide reduction assay (NADPH consumption at A340) [4] does the source give for “Brugia malayi thioredoxin 1 (natural protein)” here?
A: 2.4 µM

Q: And the Km of the reductase for the Trx, Trx-linked insulin disulfide reduction assay (NADPH consumption at A340) [5]?
A: 2.7 µM

Q: “Brugia malayi thioredoxin 2 (natural protein)” was tested. Which Km of the reductase for the Trx, Trx-linked insulin disulfide reduction assay (NADPH consumption at A340) [5] did it give?
A: 4.7 µM

Q: NADPH was tested. Which Tm (BmTrxR (isoform D) [6]) did it give?
A: 48.3 ± 0.6 °C

Q: Which Km of the reductase for the Trx, Trx-linked insulin disulfide reduction assay (NADPH consumption at A340) [4] does the source give for “Onchocerca volvulus thioredoxin 1 (natural protein)” here?
A: 1.6 µM

Q: What about the Km of the reductase for the Trx, Trx-linked insulin disulfide reduction assay (NADPH consumption at A340) [5] of the same molecule?
A: 1.1 µM

Q: What does the source list for “Onchocerca volvulus thioredoxin 2 (natural protein)”?
A: Km of the reductase for the Trx, Trx-linked insulin disulfide reduction assay (NADPH consumption at A340) [4]: 4.5 µM; Km of the reductase for the Trx, Trx-linked insulin disulfide reduction assay (NADPH consumption at A340) [5]: 9.6 µM

Q: For TRi-2, which “Apparent IC50 (μM) ^a” value (OvTrxR (isoform D) [2]; unreliable (above the printed inhibitor range 1 nM-1 μM)) is on record?
A: 1.5 µM

Q: And the “Apparent IC50 (μM) ^a” value (BmTrxR (isoform D) [3]; 25 nM enzyme, 30 min preincubation with 0.25 mM NADPH and 0.1 mg/ml BSA, 1 mM DTNB, pH 7.5, unreliable (above the printed inhibitor range 1 nM-1 μM))?
A: 1.8 µM

Q: Which IC50 (OvTrxR (isoform D) [2]; covalent) does the source give for auranofin here?
A: 0.0032 µM

Q: What about the IC50 (BmTrxR (isoform D) [3]; 25 nM enzyme, 30 min preincubation with 0.25 mM NADPH and 0.1 mg/ml BSA, 1 mM DTNB, pH 7.5, covalent) of the same molecule?
A: 0.0024 µM

B1: BmTrxR (isoform D) (Brugia malayi) (protein)
chain: T3 sequence (A0A1I9G0T9 116-713)
Q: B1 was tested. Which Km (purified protein) did it give?
A: 70 ± 7.8 µM

Q: And the kcat (purified protein)?
A: 20 ± 0.95 s⁻¹

Q: What about the kcat/Km (purified protein) of the same molecule?
A: 283000 M⁻¹ s⁻¹
